Experimental data: publication PMC6478803

Biological target: FleQ (Pseudomonas syringae pv. tomato DC3000) (UniProt Q884Y2)
Test: EMSA
Details: STAD: 25 mM Tris-acetate pH 8.0, 8 mM Mg-acetate, 10 mM KCl, 3.5% PEG-8000, 1 mM DTT, 10 ug/ml poly(dI-dC), 200 ug/ml BSA; 20 nM probe (Results: 1 nM); 30 min …

GTTCGATTAATCCAGTGAGCCTTTCGGTGCAGTTGGTCTGCGCCAACGCCACTGTCGGCGCGCCGCTGAATCTGGGTGACCTCAAGGCCGGTGAACGCTATAGCATCTTGCTGGTGCCGTCCGCCACAGGCCCGCGCCTGTTGTCGGCCACGGACACACTGTCCAACTGATCGGGTTCTGTCGTCGTTATGGTATTCGCCTCGCTTGAGTTTCTGATGGTGTTCCTGCCGGCTTTTTTGCTGGCCTATGCCGCAAGCCCGGCGGCGTGGCGCAACGTCGTTCTGTTGATCGGCAGTTGG (double strand) [wssH (wssH1)]
binding: no binding
